According to publication doi:10.1101/2025.03.30.646023 (bioRxiv, 2025):
Changes are numbered by the printed parent chain.

T1: SARS-CoV-2 spike S2 [aa 1149-1167] peptide (SARS-CoV-2, UniProt P0DTC2)
T1 chain: KEELDKYFKNHTSPDVDLG

T2: SARS-CoV-2 spike S2 stem helix peptide (amino acid 1143 - 1162) (SARS-CoV-2, UniProt P0DTC2, biotin, amino-terminus)
T2 chain: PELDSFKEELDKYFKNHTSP

B1: GB-0669 Fab (Fab, V domains shown)
VH: EVQLVESGAEVKKPGESLKISCKGSGYTFTRYWIGWVRQMPGKGLEWMGIIYPGDSDVRYSPSFQGHVTISADKSISTAYLQWNSLKASDTAMYYCARLPQYCSKGVCYRWFDPWGQGTLVTVSS
VL: EIVLTQSPSSVSASVGDRVTITCRASQGISSWLAWYQQKPGKAPKLLIYAASSLQSGVPSRFSGSGSGTDFTLTISSLQPEDFATYYCQQGHSFPYTFGQGTNLEIK
B2: CV3-25 Fab (Fab, V domains shown)
VH: B1 VH with V58T, K105N, Y109Q
VL: B1 VL with H92N
B3: PRO-37587 (antibody, V domains shown)
VH: QVQLVQSGAEVKKPGSSVKVSCKASGDTSDTYTISWVRQAPGQGLEWMGRIILLSGYANYAQKIQGRVTITADKSTSTAYMELTSLRSDDTAVYYCARGFNGDYYGWGDDDAFDFWGQGTLVTVYS
VL: QTVLTQPPSVSGAPGQRVTISCTGSSSNIGAGYRVHWYQQLPGTAPKLLIAGRSNRPSGVPDRFSGSKSGTSASLAITGLQAEDEADYYCQSYDSSLFDPHWVFGGGTKLTVL

Legend:
[1] = biological target: T1, SARS-CoV-2 spike S2 [aa 1149-1167] …; experiment: crystal structure
[2] = biological target: T2, SARS-CoV-2 spike S2 stem helix peptide …; experiment: SPR
LC556375.1 RBD = LC556375.1 RBD (Sarbecovirus Rc-o319 (Rhinolophus …, strain)); experiment: flow cytometry on cells

| Binder | binding result [1] | binding result [2] | binding result (LC556375.1 RBD) |
| --- | --- | --- | --- |
| B1 | binds | binds | – |
| B2 | – | binds | – |
| B3 | – | – | no binding (tested: 1 nM) |
